Results taken from paper PMC5462994.

Assays:
[1] = molecular target: Recombinant M.tb H37Rv GAPDH, wild type (Mycobacterium tuberculosis H37Rv) (UniProt P9WN83); experiment: ELISA; solid phase binding assay: 2 ug/well GAPDH coated on polystyrene wells in PBS pH 7.4; 7.5-1,000 nM biotinylated Lf in PBS with 1% fish skin gelatin, 25°C, 2 h; detected with anti-biotin; one-site specific binding fit
[2] = molecular target: Transferrin (Homo sapiens) (UniProt P02787); conditions: cited from earlier work
Chain of UniProt P02787 (P02787 20-698): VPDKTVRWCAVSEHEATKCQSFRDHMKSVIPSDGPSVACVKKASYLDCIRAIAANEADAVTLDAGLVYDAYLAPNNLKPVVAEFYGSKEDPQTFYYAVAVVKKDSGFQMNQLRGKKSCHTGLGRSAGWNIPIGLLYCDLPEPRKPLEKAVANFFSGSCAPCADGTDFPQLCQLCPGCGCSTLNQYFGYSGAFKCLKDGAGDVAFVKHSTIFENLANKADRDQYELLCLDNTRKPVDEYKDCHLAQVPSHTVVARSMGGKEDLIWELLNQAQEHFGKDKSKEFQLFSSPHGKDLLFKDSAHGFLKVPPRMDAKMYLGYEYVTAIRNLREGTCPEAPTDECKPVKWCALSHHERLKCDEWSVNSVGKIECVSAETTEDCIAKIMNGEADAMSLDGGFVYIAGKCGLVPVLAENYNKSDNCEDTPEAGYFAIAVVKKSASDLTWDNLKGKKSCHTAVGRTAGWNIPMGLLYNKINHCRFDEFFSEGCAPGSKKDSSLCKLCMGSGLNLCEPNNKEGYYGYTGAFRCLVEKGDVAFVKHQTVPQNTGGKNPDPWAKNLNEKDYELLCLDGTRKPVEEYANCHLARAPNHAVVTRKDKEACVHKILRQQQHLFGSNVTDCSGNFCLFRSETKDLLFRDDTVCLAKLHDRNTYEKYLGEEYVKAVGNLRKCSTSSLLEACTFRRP

Chain of GAPDH (P9WN83 whole entry): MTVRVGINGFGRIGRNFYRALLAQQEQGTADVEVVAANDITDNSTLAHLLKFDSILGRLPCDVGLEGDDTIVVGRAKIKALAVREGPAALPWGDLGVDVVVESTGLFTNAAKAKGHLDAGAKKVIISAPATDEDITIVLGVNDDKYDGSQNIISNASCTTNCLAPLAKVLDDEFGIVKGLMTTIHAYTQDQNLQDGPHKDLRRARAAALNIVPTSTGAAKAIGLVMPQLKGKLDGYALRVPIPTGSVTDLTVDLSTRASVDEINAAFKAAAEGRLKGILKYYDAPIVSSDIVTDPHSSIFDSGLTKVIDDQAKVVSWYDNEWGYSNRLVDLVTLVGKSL

| Substance | Kd [1] | Kd [2] |
| --- | --- | --- |
| Biotinylated human lactoferrin (natural protein) | 31.7 nM | – |
| GAPDH (from UniProt P9WN83) | – | 160 nM |
